Read-outs that look alike come from different tables or passages of the source.
T1: full-length Sudan GP (GPFL) (Sudan virus (SUDV), UniProt Q7T9D9 33-650)
T1 construct: also called Sudan GPFL; GP(S)FL
T1 sequence: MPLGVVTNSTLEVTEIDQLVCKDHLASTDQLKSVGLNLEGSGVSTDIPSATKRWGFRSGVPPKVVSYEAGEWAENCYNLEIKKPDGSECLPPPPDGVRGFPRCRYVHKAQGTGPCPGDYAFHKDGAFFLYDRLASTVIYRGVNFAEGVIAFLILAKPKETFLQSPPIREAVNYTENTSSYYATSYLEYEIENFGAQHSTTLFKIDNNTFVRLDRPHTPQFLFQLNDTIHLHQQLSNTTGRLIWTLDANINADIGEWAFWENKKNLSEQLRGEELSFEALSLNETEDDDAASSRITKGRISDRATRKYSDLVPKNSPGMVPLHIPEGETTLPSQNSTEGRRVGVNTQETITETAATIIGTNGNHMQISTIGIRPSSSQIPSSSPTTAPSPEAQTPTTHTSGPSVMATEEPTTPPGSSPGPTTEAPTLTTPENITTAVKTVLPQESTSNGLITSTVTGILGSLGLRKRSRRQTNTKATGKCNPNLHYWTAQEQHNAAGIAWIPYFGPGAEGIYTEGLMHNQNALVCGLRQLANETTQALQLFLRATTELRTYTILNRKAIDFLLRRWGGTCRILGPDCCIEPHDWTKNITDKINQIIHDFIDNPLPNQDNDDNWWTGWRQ

T2: SUDV GP on pseudotyped lentiviral vector (Sudan virus (SUDV), UniProt Q7T9D9 33-676)
T2 sequence: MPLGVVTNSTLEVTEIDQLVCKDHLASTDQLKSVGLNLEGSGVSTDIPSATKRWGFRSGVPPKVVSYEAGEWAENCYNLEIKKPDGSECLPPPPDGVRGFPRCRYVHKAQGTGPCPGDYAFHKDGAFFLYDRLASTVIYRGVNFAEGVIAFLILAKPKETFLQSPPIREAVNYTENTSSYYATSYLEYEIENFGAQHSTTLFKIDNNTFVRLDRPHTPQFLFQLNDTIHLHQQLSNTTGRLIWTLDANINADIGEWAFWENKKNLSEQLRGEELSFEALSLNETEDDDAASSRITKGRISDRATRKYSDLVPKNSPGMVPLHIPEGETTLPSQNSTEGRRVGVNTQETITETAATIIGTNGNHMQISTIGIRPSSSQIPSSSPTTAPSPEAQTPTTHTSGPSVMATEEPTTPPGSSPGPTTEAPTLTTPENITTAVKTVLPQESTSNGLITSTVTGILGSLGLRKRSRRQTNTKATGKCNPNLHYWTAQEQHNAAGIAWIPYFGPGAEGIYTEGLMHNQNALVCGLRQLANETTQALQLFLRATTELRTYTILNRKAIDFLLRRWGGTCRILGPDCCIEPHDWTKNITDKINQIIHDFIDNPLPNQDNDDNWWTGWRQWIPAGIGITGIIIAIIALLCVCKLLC

T3: full-length Zaire GP (GPFL) (Ebola (Zaire) virus (EBOV), UniProt Q05320 33-632)
T3 construct: also called Zaire GPFL; GP(Z)FL
T3 sequence: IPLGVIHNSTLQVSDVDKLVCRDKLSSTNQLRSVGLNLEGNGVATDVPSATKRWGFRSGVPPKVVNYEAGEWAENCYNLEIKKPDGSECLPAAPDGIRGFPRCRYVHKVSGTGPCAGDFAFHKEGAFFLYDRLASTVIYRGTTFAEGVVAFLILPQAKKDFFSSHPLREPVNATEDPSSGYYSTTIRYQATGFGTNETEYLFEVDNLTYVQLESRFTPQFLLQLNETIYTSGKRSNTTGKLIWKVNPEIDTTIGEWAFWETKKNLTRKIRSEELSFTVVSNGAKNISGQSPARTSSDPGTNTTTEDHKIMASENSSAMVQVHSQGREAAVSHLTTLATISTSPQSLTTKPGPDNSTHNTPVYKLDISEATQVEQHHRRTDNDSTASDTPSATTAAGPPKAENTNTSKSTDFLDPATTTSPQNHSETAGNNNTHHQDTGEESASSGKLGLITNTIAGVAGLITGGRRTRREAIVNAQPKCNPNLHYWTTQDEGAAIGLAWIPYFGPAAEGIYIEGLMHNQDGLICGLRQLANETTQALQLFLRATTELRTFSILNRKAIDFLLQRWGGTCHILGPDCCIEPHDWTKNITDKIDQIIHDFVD

B1: antibody 354S (antibody, V domains shown)
VH: QVQLVQSGAEVKKPGASVKVSCKASGYSFASYYIHWVRQAPGQGLEWMGIINPSGGTTSYAQKFQGRVTMTRDTSTSTVYMELSSLGSEDTAVYYCARIVDRVTIYLNGVDNYWGQGTLVTVSS
VL: EIVMTQSPATLSVSPGERVTLSCRASQSVSSNLAWFQQTPGQAPRLLIYGASTRASGVPARFSGSGSGTEFTLTISSLQSEDFAVYYCLQYNNWPPGWKYGFGQGTKLEIK
B2: antibody 314L (antibody, V domains shown)
VH: EERLVESGGGLVQPGGSLRLSCAASGFTFGDYAMHWVRQVPGKSLEWLSGISWSGYTTYSADSVKGRFTISRDNAKNSLYLQMNRLRPEDTGLYYCVTLIGAIGIKDSLDVWGRGVLVTVSS
VL: EVVFTQPHSVSGSPGQMVTISCTRSSGTIDNSYVYWHQQRPGSAPTTVIYNDDQRPSGVPDRFSGSIDSSSNSASLTISGLKSEDEADYYCQSYDSSGWVFGGGTRLTVL
B3: antibody 315L (antibody, V domains shown)
VH: QVQLQESGPGLVKPSETLSLTCTVSGGSITGNYWTWVRQPPGKGLQYIGRFDAGGKTYYNPPLKSRVSILGDKSKNQVSLNLTSVTVADTGVYYCAREQWGQLLSGSFDVWGRGVLVTVSS
VL: SYELTQPPSVSVSPGQTARITCSGDALPDYYAHWYQQKSGQAPMLVIYKDTERPSGIPERFSGSSSGTTVSLTISGVQAEDEADYYCQSGDSSGNHWVFGGGTRLTVL
B4: antibody 233S (antibody, V domains shown)
VH: EVQLVESGGGLGQPGGSLRLSCAASGFKFKIFGMNWVRQAPGKGLEWVSYISSRSSIIYYADSVKGRFTISRDDATNSLFLQMNSLRDEDTAMYYCVRDYNLIDFVWGSLFDYWGQGILVTVSS
VL: AIRMTQSPSSLSASTGDSVTITCRASQNIASYLAWYQQIPGKAPKLLIYVASTLQSGVPSRFSGSGSGTDFTLTISSLQSEDFATYYCQQYYRYPPTFGQGTKVEIK
B5: antibody 523S (antibody, V domains shown)
VH: QVQLVQSGAELKKPGASVKVSCKASGYTFSDHYVHWVRQAPGQGLEWMGRINPNSGGTNYAQRFLGRVTMTRDASISTAYLDLSSLRSDDTAVYYCARSSSSWSGHYYYYMDVWGKGTTVTVSS
VL: QSVLTQPPSVSAAPGQRVTISCSGSTSNIASNFVSWYQQLPGTAPKLLIYDNHKRPSGIPDRFSGSKSGTSATLGITGLQTGDEADYYCGTWDSSLSAGVFGGGTKVTVLG
B6: antibody 503S (antibody, V domains shown)
VH: QVQLVQSGAEVKKPGASVRVSCKASGYTFTSYYMHWVRQAPGQGLEWMGQINPSGGTTRYERKFQGRITVTRDTSTSTVYLELSSLRSEDTASYFCACLRDKVTYYDLWSGVDSVWGQGTLVTVSS
VL: DIQMTQSPSSLSASVGDRVTITCRASQDISTWLAWYQQKPEKAPKSLIYAASTLETGVPSRFSGSGSGTDFTLTISSLQPEDFATYYCEQYNGFPRTFGQGTKLDIK

Columns and labels:
[1] = target: T1, full-length Sudan GP (GPFL); test: ELISA on coated GP
[2] = target: T2, SUDV GP on pseudotyped lentiviral vector; test: cell-based or functional assay
[3] = target: T1, full-length Sudan GP (GPFL); test: ELISA on coated GP; remark: listed apart in the source
[4] = target: T3, full-length Zaire GP (GPFL); test: ELISA on coated GP
[5] = target: T2, SUDV GP on pseudotyped lentiviral vector; test: cell-based or functional assay; remark: listed apart in the source

Row | Binder | EC50 [1] | IC50, microneutralization of GP-pseudotyped lentiviral vector on HEK293 cells [2] | EC50 [3] | EC50 [4] | IC50, microneutralization of GP-pseudotyped lentiviral vector on HEK293 cells [5]
1 | B1 | 0.0613 µg/mL | 0.03 µg/mL |  |  | 
2 | B2 |  |  | 1.05 µg/mL | 1.73 µg/mL | 
3 | B3 |  |  | 0.01 µg/mL | 1.8 µg/mL | > 10 µg/mL
4 | B4 | 0.133 µg/mL | 0.167 µg/mL |  |  | 
5 | B5 | 0.371 µg/mL | 0.108 µg/mL |  |  | 
6 | B6 | 0.64 µg/mL | 0.102 µg/mL |  |  | 
